In paper PMC7338481 one finds Kd data, which are given here for one substance.

The target in this experiment is Staphylococcal enterotoxin G, wild type (Staphylococcus aureus (staphylococcal)) (UniProt P0A0L8). Description: SPR.

In general, Kd refers to the constant that tells how readily two partners part at equilibrium. On to Soluble mouse TCR β chain Vβ8.2 protein, for which the Kd came out at 370 nM.
